According to patent publication US20170129962A1 (Hoffmann-La Roche, published 2017):

What was measured:
[1] = target: T1, TWEAK (human, UniProt O43508 94-249, limits assumed); assay: SPR (Biacore), TWEAK amine-coupled on C1 chip, bispecific antibody as analyte, 1:1 Langmuir
T1 construct: The method paragraph says only 'TWEAK'; also called human TWEAK; TNF-related weak inducer of apoptosis
T1 sequence (looked up): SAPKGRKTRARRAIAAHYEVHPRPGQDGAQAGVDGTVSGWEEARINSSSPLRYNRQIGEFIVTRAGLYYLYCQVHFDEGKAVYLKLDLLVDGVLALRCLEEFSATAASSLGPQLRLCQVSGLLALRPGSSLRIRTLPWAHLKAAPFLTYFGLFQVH
Description: Around 100 RU of TWEAK was immobilized on the C1 chip surface at pH 5.0 using an amine coupling kit supplied by the GE Healthcare. The sample and system buffer was PBS-T (10 mM phosphate buffered saline including 0.05% Tween 20) pH 7.4. Association was measured by injection the bispecific antibody in various concentrations in solution for 3 min at a flow of 30 μl/min starting with 50 nM in 1:1 serial dilutions. The dissociation phase was monitored for up to 10 min and triggered by switching from the sample solution to running buffer. The surface was regenerated three times by 30 sec wash with a 3 M MgCl2 solution at a flow rate of 30 μl/min. Bulk refractive index differences were corrected by subtracting the response obtained from a blank-coupled surface. Blank injections are also subtracted (=double referencing). For calculation of KD and other kinetic parameters, the Langmuir 1:1 model was used.
(§1) Binding of the multispecific antibodies to their respective target antigens, i.e. IL17 and TWEAK, was assessed by Biacore® as described in the general methods section.

[2] = target: T2, human IL17 (human, UniProt Q16552 24-155); assay: SPR (Biacore), bispecific antibody captured by anti-human F(ab')2, human IL17 as analyte, 1:1 Langmuir
T2 construct: for that reason an apparent KD is reported; also called IL17-A
T2 sequence (looked up): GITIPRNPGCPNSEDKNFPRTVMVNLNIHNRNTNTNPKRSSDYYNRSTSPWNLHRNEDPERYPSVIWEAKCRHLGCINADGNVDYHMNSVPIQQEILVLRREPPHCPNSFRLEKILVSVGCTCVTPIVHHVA
Description: (§2) Around 6000 resonance units (RU) of the capturing system (15 μg/ml goat anti human F(ab′)2; Order Code: 28958325; GE Healthcare Bio-Sciences AB, Schweden) were coupled on a CMS chip at pH 5.0 by using an amine coupling kit supplied by the GE Healthcare. The sample and system buffer was PBS-T (10 mM phosphate buffered saline including 0.05% Tween 20) pH 7.4. The bispecific antibody was captured by injecting a 50 nM solution for 90 sec at a flow of 10 μl/min. Association was measured by injection human IL17 in various concentrations in solution for 3 min at a flow of 30 μl/min starting with 50 nM in 1:1 serial dilutions. The dissociation phase was monitored for up to 10 min and triggered by switching from the sample solution to running buffer. The surface was regenerated twice by 60 sec wash with a 10 mM glycine pH 2.1 solution at a flow rate of 30 μl/min. Bulk refractive index differences were corrected by subtracting the response obtained from a goat anti human F(ab′)2 surface. Blank injections are also subtracted (=double referencing). For calculation of apparent KD and other kinetic parameters, the Langmuir 1:1 model was used.
as §1

[3] = target: T2, human IL17; assay: SPR (Biacore), bispecific antibody captured by anti-human F(ab')2, human IL17 as analyte, 1:1 Langmuir, apparent KD
Description: as §2, §1

B1: TweakIL17-0129 (bispecific antibody, human IgG4 S228P, kappa)
light 1: DIVMTQSPLSLPVTPGEPASISCRSSQSLVHSNGDTYFHWYLQKPGQSPQLLIYKVSNRFSGVPDRFSGSGSGTDFTLKISRVEAEDVGVYYCSQTTHAPFTFGQGTKLEIKRTVAAPSVFIFPPSDEKLKSGTASVVCLLNNFYPREAKVQWKVDNALQSGNSQESVTEQDSKDSTYSLSSTLTLSKADYEKHKVYACEVTHQGLSSPVTKSFNRGEC
heavy 1: EVQLVESGGGLVQPGGSLRLSCAASGFSLDSYGVHWVRQATGKGLEWVSVIWSDGTTTYNSALKSRFTISRENAKNSLYLQMNSLRAGDTAVYYCARDTHYRLYYYAMDYWGQGTTVTVSSASTKGPSVFPLAPCSRSTSESTAALGCLVEDYFPEPVTVSWNSGALTSGVHTFPAVLQSSGLYSLSSVVTVPSSSLGTKTYTCNVDHKPSNTKVDKRVESKYGPPCPPCPAPEFEGGPSVFLFPPKPKDTLMISRTPEVTCVVVDVSQEDPEVQFNWYVDGVEVHNAKTKPREEQFNSTYRVVSVLTVLHQDWLNGKEYKCKVSNKGLPSSIEKTISKAKGQPREPQVCTLPPSQEEMTKNQVSLSCAVKGFYPSDIAVEWESNGQPENNYKTTPPVLDSDGSFFLVSRLTVDKSRWQEGNVFSCSVMHEALHNHYTQKSLSLSLGK
light 2: DIQMTQSPSSVSASVGDRVTITCQASQNIYSNLAWYQQKPGKAPKLLIYTASYLASGVPSRFSGSGSGTDYTLTISSLQPEDFATYYCQTAYYNSRPDTVAFGGGTKVEIKSSASTKGPSVFPLAPCSRSTSESTAALGCLVKDYFPEPVTVSWNSGALTSGVHTFPAVLQSSGLYSLSSVVTVPSSSLGTKTYTCNVDHKPSNTKVDKRVESKYG
heavy 2: QVQLVQSGAEVKKPGSSVKVSCKASGFDFSTYYMSWVRQAPGQGLEWMGTVYVRQGTTYYASWLNGRVTITADESTSTAYMELSSLRSEDTAVYYCARGGYNYDDAFVIWGQGTLVTVSSASVAAPSVFIFPPSDEQLKSGTASVVCLLNNFYPREAKVQWKVDNALQSGNSQESVTEQDSKDSTYSLSSTLTLSKADYEKHKVYACEVTHQGLSSPVTKSFNRGECPPCPPCPAPEFEGGPSVFLFPPKPKDTLMISRTPEVTCVVVDVSQEDPEVQFNWYVDGVEVHNAKTKPREEQFNSTYRVVSVLTVLHQDWLNGKEYKCKVSNKGLPSSIEKTISKAKGQPREPQVYTLPPCQEEMTKNQVSLWCLVKGFYPSDIAVEWESNGQPENNYKTTPPVLDSDGSFFLYSRLTVDKSRWQEGNVFSCSVMHEALHNHYTQKSLSLSLGK
notes: CrossMAb CH1-CL, knob-into-hole with S354C/Y349C
**Q.** Which Kd [1] does the source give for B1 here?
**A.** Its Kd is under 0.1 nM.

**Q.** And the koff [1]?
**A.** The koff was 2.64e-05 s⁻¹.

**Q.** What about the kon [1] of the same binder?
**A.** The kon was 707000 M⁻¹ s⁻¹.

**Q.** What about the koff [2] of the same binder?
**A.** The koff was 0.000204 s⁻¹.

**Q.** What about the kon [2] of the same binder?
**A.** Its kon is 1.09e+07 M⁻¹ s⁻¹.

**Q.** And the Kd [3]?
**A.** The Kd was under 0.1 nM.
